Laboratory results as given in patent US20200385445A1.
Values belong to the substance of their own block, whether it stands above or below them.

Legend:
[1] = target: mouse PVRL2 splice variant 1 (sv1) over-expressed on HEK293 cells (RC-334) (mouse) (UniProt P32507); assay: FACS on HEK293 OX mouse PVRL2 sv1
[2] = target: mouse PVRL2 endogenously expressed on B16-F10 cells (mouse) (UniProt P32507); assay: FACS dose response on B16-F10 cells
[3] = target: mouse PVRL2 splice variant 2 (sv2) over-expressed on HEK293 cells (RC-335) (mouse) (UniProt P32507); assay: FACS dose response on HEK293 OX mouse PVRL2
[4] = target: mouse PVRIG over-expressed on HEK293 cells (RC-287; PVRIG-FLAG RC-286) (mouse); assay: FACS on cells OX mouse PVRIG
[5] = target: mouse PVRIG over-expressed on HEK293 cells (RC-287; PVRIG-FLAG RC-286) (mouse); assay: FACS on HEK293 OX mouse PVRIG, 60 ug/ml, one of two sources
[6] = target: mouse PVRIG over-expressed on HEK293 cells (RC-287; PVRIG-FLAG RC-286) (mouse); assay: FACS on HEK293 OX mouse PVRIG, 60 ug/ml, other of two sources
[7] = target: mouse PVRIG over-expressed on HEK293 cells (RC-287; PVRIG-FLAG RC-286) (mouse); assay: FACS on cells OX mouse PVRIG, preliminary data

mouse PVRL2-his (R&D, 3869-N2; Sino Biological, 50318-M08H), sequence (P32507 32-351 limits assumed, stated change not applied): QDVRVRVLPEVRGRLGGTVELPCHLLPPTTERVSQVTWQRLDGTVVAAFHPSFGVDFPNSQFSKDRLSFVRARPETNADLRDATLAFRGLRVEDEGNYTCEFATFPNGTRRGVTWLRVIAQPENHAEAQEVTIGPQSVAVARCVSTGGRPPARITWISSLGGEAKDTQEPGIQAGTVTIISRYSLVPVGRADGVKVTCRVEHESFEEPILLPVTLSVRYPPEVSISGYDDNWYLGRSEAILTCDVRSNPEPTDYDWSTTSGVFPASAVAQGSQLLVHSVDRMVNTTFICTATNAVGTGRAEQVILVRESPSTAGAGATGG
mouse PVRL2 splice variant 1 (sv1) over-expressed on HEK293 cells (RC-334) (mouse), sequence (P32507 32-530, change not shown): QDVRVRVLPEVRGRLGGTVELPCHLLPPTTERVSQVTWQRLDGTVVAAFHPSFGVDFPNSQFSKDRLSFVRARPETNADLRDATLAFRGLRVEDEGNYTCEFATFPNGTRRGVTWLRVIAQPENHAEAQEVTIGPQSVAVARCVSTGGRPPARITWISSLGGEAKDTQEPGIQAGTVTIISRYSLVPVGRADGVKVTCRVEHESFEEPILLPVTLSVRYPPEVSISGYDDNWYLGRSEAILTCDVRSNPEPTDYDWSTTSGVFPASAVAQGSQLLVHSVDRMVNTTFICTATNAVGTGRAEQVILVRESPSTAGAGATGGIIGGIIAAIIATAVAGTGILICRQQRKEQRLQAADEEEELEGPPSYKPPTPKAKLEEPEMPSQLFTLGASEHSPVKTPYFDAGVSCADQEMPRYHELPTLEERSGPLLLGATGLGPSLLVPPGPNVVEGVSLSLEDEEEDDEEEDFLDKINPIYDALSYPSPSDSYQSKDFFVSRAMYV
custom Fc-fused mouse PVRL2 (GenScript), sequence (P32507 32-351 limits assumed): as the sequence (P32507 32-351 limits assumed, stated change not applied) above
mouse PVRL2 splice variant 2 (sv2) over-expressed on HEK293 cells (RC-335) (mouse), sequence (P32507 32-530, change not shown): as the sequence (P32507 32-530, change not shown) above
mouse PVRL2 endogenously expressed on B16-F10 cells (mouse), sequence (P32507 32-530): as the sequence (P32507 32-530, change not shown) above

- fold binding vs empty vector cells [1]: 6 to 11 fold
- concentration at saturation of binding [2]: 12.5 µg/mL
- concentration at saturation of binding [3]: 12.5 µg/mL
Substance: PVRIG mECD-mIg fusion protein (ECD of mouse PVRIG fused to the Fc of mouse IgG2a) (Fc fusion)

- fold binding [4]: 2 to 3 fold
- fold binding vs empty vector cells [5]: 2 fold
- fold binding vs empty vector cells [6]: 3 to 4 fold
Substance: mouse PVRL2-his (R&D, 3869-N2; Sino Biological, 50318-M08H) (from UniProt P32507 32-351) (ligand)

- fold binding [7]: 5 fold
Substance: custom Fc-fused mouse PVRL2 (GenScript) (from UniProt P32507 32-351) (Fc fusion)
